Measured values: article PMC10104896 (2023)
Where no end group is shown, it is not given here.

Key:
12mTau-acK280 peptide [1] = biological target: T1, 12mTau-acK280 peptide (human); test: BLI
T1 chain: VQIINK(Ac)KLDLSN

12mTau-acK280 peptide [2] = biological target: T1, 12mTau-acK280 peptide; test: BLI

koff (12mTau-acK280 peptide [1]): 0.000115 s⁻¹
Kd (12mTau-acK280 peptide [2]): 0.257 nM
B1: Y01, monoclonal anti–tau-acK280 antibody (antibody, V domains shown)
VH: QVQLQESGPGLVKPSQTLSLTCTVSGDSITSGYWNWIRQPPGKGLEYIGYIRYSGRTYYNPSLKSRVTISRDTSKNQFSLKLSSVTAADTAVYYCASVYFTYWGQGTLVTVSS
VL: DVVMTQTPLSLPVTLGQPASISCKSSQSLLDSDGKTYLNWFQQRPGQSPKRLISLVSKLDSGVPDRFSGSGSGTDFTLKISRVEAEDVGVYYCWQGSHFPYTFGQGTKLEIK
